The record followed here is PMC2680971 (Journal of Molecular Biology, 2009).

Data set [1] deals with DC-SIGNR neck domain, 7.5 repeat form, His2 tag (human). In words: SEC.
Data set [2] deals with the molecule itself. Description: SEC. Background: In gel filtration, larger molecules generally elute earlier.

As to “DC-SIGNR neck domain, 7.5 repeat form, His2 tag (domain or fragment)”, the stoichiometry N (in general, a count of units in the complex or per binding partner) in data set [1] worked out at 4.

B1: DC-SIGNR neck domain, 6.5 repeat polymorphic form, His2 tag (domain or fragment)
chain: KVPSSLSQEQSEQDAIYQNLTQLKAAVGELSEKSKLQEIYQELTQLKAAVGELPEKSKLQEIYQELTRLKAAVGELPEKSKLQEIYQELTRLKAAVGELPEKSKLQEIYQELTRLKAAVGELPEKSKLQEIYQELTELKAAVGELPEKSKLQEIYQELTQLKAAVE
For the molecule B1, the “stoichiometry N” value in data set [2] came out at 4.
